Tests used:
Experiment in all cases: SEC; analytical gel filtration on an XBridge BEH SEC 200 Å 3.5 μm column; molecular weight estimated from a standard curve (thyroglobulin, immunoglobin, BSA, myoglobulin)
[1] = molecular target: Staphylococcus aureus oleate hydratase (OhyA) (Staphylococcus aureus)
[2] = molecular target: Staphylococcus aureus oleate hydratase OhyA(E82A) (Staphylococcus aureus)
[3] = molecular target: Staphylococcus aureus oleate hydratase OhyA(Y201F) (Staphylococcus aureus)

Work on “Staphylococcus aureus oleate hydratase (OhyA) (enzyme)” yielded a stoichiometry N [1] of 2.
Work on “Staphylococcus aureus oleate hydratase OhyA(E82A) (enzyme)” yielded a stoichiometry N [2] of 2.
With “Staphylococcus aureus oleate hydratase OhyA(Y201F) (enzyme)” the stoichiometry N [3] was 2.
